These binders were tested against T1, CT peptide (residues 367–393 of human p53) labeled with FAM at the N-terminus (human, UniProt P04637 367-393, FAM at the N-terminus) (assay: fluorescence polarisation; fluorescence anisotropy; nonlabeled peptide titrated into 5 nM FAM-labeled CT peptide; 25 °C; 20 mM HEPES, 0.5 mM EDTA, 1 mM DTT, 0.2 mg/mL BSA, pH 7.9; in the absence of salt; apparent dissociation constant, one by one binding fit). Conditions: both partners purified.
T1 construct: p53, human, residues 367-393 (C-terminal domain); also called CT peptide of p53; monomeric CT domain of p53; source: synthetic peptide, without caps, at least 95% purity (Toray Research Center Inc.)
T1 sequence (P04637 367-393): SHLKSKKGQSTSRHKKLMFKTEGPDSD

Binder	Kd
EEEEDNNDDDEEE (designed with the Miyazawa-Jernigan potential, one by three residue design, 13 residues; also called designed peptide DP5; source: synthetic peptide, without caps, at least 95% purity (Toray Research Center Inc.)) [DP5]	3.2 µM
DEHEEIFMESKGWRDR (designed with the Miyazawa-Jernigan potential, one by one residue design, 16 residues; also called designed peptide DP3; source: synthetic peptide, without caps, at least 95% purity (Toray Research Center Inc.)) [DP3]	550 µM
EEEEEDNNDDDEEEWF (designed with the Miyazawa-Jernigan potential, one by three residue design, 16 residues; designed target is residues 369-384 of p53; also called designed peptide DP6; source: synthetic peptide, without caps, at least 95% purity (Toray Research Center Inc.)) [DP6]	1.2 µM
DHIEDEEGNDSDEHEE (designed with the Miyazawa-Jernigan potential, one by one residue design, 16 residues; also called designed peptide DP4; source: synthetic peptide, without caps, at least 95% purity (Toray Research Center Inc.)) [DP4]	9 µM
EHEEIFMESKGWR (designed with the Miyazawa-Jernigan potential, one by one residue design, 13 residues; also called designed peptide DP1; source: synthetic peptide, without caps, at least 95% purity (Toray Research Center Inc.)) [DP1]	60 µM
EDEEGNDSDEHEE (designed with the Miyazawa-Jernigan potential, one by one residue design, 13 residues; also called designed peptide DP2; source: synthetic peptide, without caps, at least 95% purity (Toray Research Center Inc.)) [DP2]	23 µM

Source: article PMC6599006 (Scientific Reports, 2019)
